# Publication PMC2914802
# B1: Sgx9260c (Burkholderia lata) (protein)
# chain: MTITVLQGGNVLDLERGVLLDHHHVVIDGDRIVEVTDRPVDFPNAQVIDVRGKTVMPGFIDCHVHVLASNANLGANATQPNILAAIRSLPILDAMLSRGFTSVRDAGGADWSLMQAVETGLVSGPRIFPSGKALSQTGGHGDFRPRGDLLEPCSCCFRTGAIARVVDGVEGVRLAVREEIQKGATQIKIMASGGVASPTDPIANTQYSEDEIRAIVDEAEAANTYVMAHAYTGRAIARAVRCGVRTIEHGNLVDEAAAKLMHEHGAFVVPTLVTYDALAKHGAEFGMPPESVAKVASVQQKGRESLEIYANAGVKMGFGSDLLGEMHEFQSGEFRIRAEVLGNLEALRSATTVAAEIVNMQGQLGVVAAGAIADLVVLDGNPLEDIGVVAGQGERVEYVLQRGRIVKAREFRRTMARE
# What was measured:
# Assay in all cases: steady-state hydrolysis kinetics
# Assay type in all cases: biochemical, Burkholderia lata
# Settings in all cases: Zn2+; pH 8.0
# [1] = substrate: CCC(=O)N1CCC[C@H]1C(=O)O
# [2] = substrate: CC(=O)N1CCC[C@H]1C(=O)O
# [3] = substrate: CCCC(=O)N1CCC[C@H]1C(=O)O
protein,measurement,setting,value
B1,Km,[1],1900 ± 200 µM
same,kcat,[1],141 ± 6 s⁻¹
same,kcat/Km,[1],74000 M⁻¹ s⁻¹
same,Km,[2],800 ± 100 µM
same,kcat,[2],227 ± 9 s⁻¹
same,kcat/Km,[2],280000 M⁻¹ s⁻¹
same,Km,[3],2600 ± 300 µM
same,kcat,[3],146 ± 6 s⁻¹
same,kcat/Km,[3],56000 M⁻¹ s⁻¹
